Experimental data taken from article PMC7865483 (International Journal of Molecular Sciences, 2021).

Molecular target: T1, Pank1 (pantothenate kinase 1), endogenous in A549 cells (human (endogenous in A549), UniProt Q8TE04 1-598)
T1 construct: pantothenate kinase 1, endogenous in the human lung cancer cell line A549; source: endogenous, A549 cells (fixed cells for PLA)
Assay: proximity ligation; in situ PLA (Duolink) on fixed A549 cells, endogenous proteins; cells serum-starved for 24 h, or serum-starved and then treated with 500 μM H2O2
Details: partners not purified

T1 sequence (Q8TE04 whole entry): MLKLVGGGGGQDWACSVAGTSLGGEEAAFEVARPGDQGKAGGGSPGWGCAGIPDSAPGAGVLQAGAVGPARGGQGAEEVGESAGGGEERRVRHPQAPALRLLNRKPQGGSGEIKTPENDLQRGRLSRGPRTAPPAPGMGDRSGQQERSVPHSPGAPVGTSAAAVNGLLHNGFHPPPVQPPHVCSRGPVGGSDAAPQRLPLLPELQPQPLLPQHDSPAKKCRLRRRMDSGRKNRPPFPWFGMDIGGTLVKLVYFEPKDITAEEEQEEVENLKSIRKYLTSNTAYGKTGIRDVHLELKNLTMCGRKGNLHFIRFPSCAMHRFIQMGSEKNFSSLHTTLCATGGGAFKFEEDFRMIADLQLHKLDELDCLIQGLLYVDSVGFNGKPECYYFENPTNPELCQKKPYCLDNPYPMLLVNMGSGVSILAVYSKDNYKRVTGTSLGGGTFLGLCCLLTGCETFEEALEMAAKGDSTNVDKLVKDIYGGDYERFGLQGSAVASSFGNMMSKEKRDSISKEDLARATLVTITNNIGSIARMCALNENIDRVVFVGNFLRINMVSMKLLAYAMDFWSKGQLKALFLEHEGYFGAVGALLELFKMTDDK

Binder | fold increase of the PLA signal after 24 h serum starvation, against control cells | fold increase of the PLA signal after stress treatments, against control conditions
CoA synthase (CoAsy) (enzyme, human (endogenous in HEK293 and A549), UniProt Q13057 1-564, looked up) MAVFRSGLLVLTTPLASLAPRLASILTSAARLVNHTLYVHLQPGMSLEGPAQPQSSPVQATFEVLDFITHLYAGADVHRHLDVRILLTNIRTKSTFLPPLPTSVQNLAHPPEVVLTDFQTLDGSQYNPVKQQLVRYATSCYSCCPRLASVLLYSDYGIGEVPVEPLDVPLPSTIRPASPVAGSPKQPVRGYYRGAVGGTFDRLHNAHKVLLSVACILAQEQLVVGVADKDLLKSKLLPELLQPYTERVEHLSEFLVDIKPSLTFDVIPLLDPYGPAGSDPSLEFLVVSEETYRGGMAINRFRLENDLEELALYQIQLLKDLRHTENEEDKVSSSSFRQRMLGNLLRPPYERPELPTCLYVIGLTGISGSGKSSIAQRLKGLGAFVIDSDHLGHRAYAPGGPAYQPVVEAFGTDILHKDGIINRKVLGSRVFGNKKQLKILTDIMWPIIAKLAREEMDRAVAEGKRVCVIDAAVLLEAGWQNLVHEVWTAVIPETEAVRRIVERDGLSEAAAQSRLQSQMSGQQLVEQSHVVLSTLWEPHITQRQVEKAWALLQKRIPKTHQALD | ~10 fold | ~10 fold
4′-phosphopantothenoylcysteine synthetase (PPCS) (enzyme) not shown |  | ~10 fold
